# Experimental data as given in patent US8465945B2, “Method for production and use of mite group 1 proteins” (Merck Patent GmbH, priority 1999, dated 2013).
# B1: PDerf1303d: P. pastoris HCY288-expressed Der f 1 lacking N-glycosylation site, asparagine 133 replaced by glutamine (SEQ ID NO:38) (protein, listed as Dermatophagoides farinae)
# chain: RPASIKTFEEFKKAFNKNYATVEEEEVARKNFLESLKYVEANKGAINHLSDLSLDEFKNRYLMSAEAFEQLKTQFDLNAETSACRINSVNVPSELDLRSLRTVTPIRMQGGCGSCWAFSGVAATESAYLAYRQTSLDLSEQELVDCASQHGCHGDTIPRGIEYIQQNGVVEERSYPYVAREQRCRRPNSQHYGISNYCQIYPPDVKQIREALTQTHTAIAVIIGIKDLRAFQHYDGRTIIQHDNGYQPNYHAVNIVGYGSTQGDDYWIVRNSWDTTWGDSGYGYFQAGNNLMMIEQYPYVVIM
# B2: Heska native Derf1: Native purified Der f 1 protein, purified as described in U.S. Ser. No. 09/292,225 (protein)
# chain: TSACRINSVNVPSELDLRSLRTVTPIRMQGGCGSCWAFSGVAATESAYLAYRNTSLDLSEQELVDCASQHGCHGDTIPRGIEYIQQNGVVEERSYPYVAREQRCRRPNSQHYGISNYCQIYPPDVKQIREALTQTHTAIAVIIGIKDLRAFQHYDGRTIIQHDNGYQPNYHAVNIVGYGSTQGDDYWIVRNSWDTTWGDSGYGYFQAGNNLMMIEQYPYVVIM
# What was measured:
# [1] = system: IgE from pooled mite-allergic human sera; experiment: Monoclonal Capture ELISA (Example 8B, Table 7); assay type: binding
# Protocol: (§1) Assays were carried out as follows. A microtiter plate as described in Example 5 was coated overnight at 4° C. with 100 ng/well of anti-Der f 1 protein monoclonal antibody 6A8, denoted herein as anti-Der f 1 MAb 6A8, provided by Dr. Martin Chapman. The plate was washed in the manner described above. The following proteins were then added to wells, having been diluted in Assay Buffer in a 2-fold dilution series, from 0.75 to 50 ng/well: Heska native Derf1, P. pastoris-expressed PDerf1303b, and E. coli-expressed PDerf1303c. After incubation for 1 hour at room temperature, plates were washed as described in Example 5. Then 100 μl per well of a 1:1000 dilution in Assay Buffer of biotinylated anti-Der f 1 monoclonal antibody 4C1, also denoted anti-Der f 1 MAb 4C1, provided by Dr. Martin Chapman, was added for 1 hour at room temperature. Plates were washed, streptavidin-HRP conjugate was added, and plates were developed as described in Example 5.
# B. The Der f 1 proteins described in Example 8B were reacted as described in Example 6 with a pool of serum samples collected from 16 mite-allergic human patients.
# [2] = system: IgE from mite-allergic or normal human sera; experiment: ELISA, binding of IgE from human sera to coated Der f 1 proteins or mite extracts, detected with FcεR1α-biotin
# [3] = system: anti-Der f 1 MAb 6A8 (capture) and anti-Der f 1 MAb 4C1 (detection); experiment: Monoclonal Capture ELISA; assay type: binding
# Protocol: as §1
# [4] = system: IgE from mite-allergic dog sera; experiment: ELISA, binding of IgE from dog sera to coated Der f 1 proteins or mite extracts, detected with FcεR1α-biotin
# Protocol: Native or recombinant Der f 1 proteins in 100 μl CBC buffer (50 mM sodium carbonate, pH 9.6) were coated onto wells (100 ng per well) of Immulon II microtiter plates (available from Dynex Technologies, Chantilly, Va.) by incubation at 4° C., covered, overnight. Excess fluid was removed and wells were blocked with 200 μl Assay Buffer (4% fetal calf serum (available from Summit Laboratories, Fort Collins, Colo.) in phosphate buffered saline (PBS, recipe in Sambrook, ibid.), plus 0.05% Tween-20 (available from Sigma, St. Louis, Mo.)) for one hour at room temperature. Plates were then washed for 4 cycles on an automatic plate washer (Ultrawash, available from Dynatech Laboratories) using PBS with 0.05% Tween-20. […] Control wells were treated identically except that no serum was added. Plates were then washed as described above. Biotinylated human IgE receptor alpha chain (FcεR1α-biotin) (100 μl of 1.3 ng/ml) prepared as described in U.S. Pat. No. 5,945,294, ibid., was added and incubated for one hour at room temperature. After this incubation, plates were washed as described above. Streptavidin-horseradish peroxidase conjugate (0.5 mg/ml, available from KPL Labs, Gaithersburg, Md.) was added at a 1:5000 dilution in Assay Buffer for one hour at room temperature, after which plates were washed as described above. TMB Peroxidase substrate system, 2 part (available from KPL Labs, #0-76-00), added at 100 μl per well, was used according to the manufacturer's directions. The color reaction was allowed to proceed until good color development was reached (about 10-15 min); then the reaction was stopped with 100 μl per well of 1 M phosphoric acid. Bound IgE was determined by measuring absorbance (Optical Density, or OD) at 450 nm (nanometers) using an ELISA plate reader (such as Spectramax”, Molecular Devices, Sunnyvale, Calif.). Background OD readings in the control wells were subtracted from all numbers. Results are reported in Tables 1, 2 and 3 as OD multiplied by 1000. OD numbers greater than 100 are considered to be positive for a reaction with IgE. P. pastoris-expressed proteins are denoted in the Tables as Pichia expressed proteins.
molecule,measurement,setting,value
B1,"OD, Monoclonal Capture ELISA",[1]; 0.39 ng protein per well,1380 OD
same,"OD, Monoclonal Capture ELISA",[1]; 0.78 ng protein per well,1963 OD
same,"OD, Monoclonal Capture ELISA",[1]; 1.55 ng protein per well,2626 OD
same,"OD, Monoclonal Capture ELISA",[1]; 3.1 ng protein per well,2913 OD
same,"OD, Monoclonal Capture ELISA",[1]; 6.25 ng protein per well,2991 OD
same,"OD, Monoclonal Capture ELISA",[1]; 12.5 ng protein per well,3037 OD
same,"OD, Monoclonal Capture ELISA",[1]; 25 ng protein per well,3007 OD
same,"OD, bound IgE","[2]; Table 6, pool of sera from 16 mite-allergic human patients, 6.2 ng protein per well",88 OD
same,"OD, bound IgE","[2]; Table 6, pool of sera from 16 mite-allergic human patients, 12.5 ng protein per well",347 OD
same,"OD, bound IgE","[2]; Table 6, pool of sera from 16 mite-allergic human patients, 25 ng protein per well",591 OD
same,"OD, bound IgE","[2]; Table 6, pool of sera from 16 mite-allergic human patients, 50 ng protein per well",779 OD
same,"OD, bound IgE","[2]; Table 6, pool of sera from 16 mite-allergic human patients, 100 ng protein per well",1097 OD
same,"OD, bound IgE","[2]; Table 6, pool of sera from 16 mite-allergic human patients, 200 ng protein per well",1448 OD
B2,"OD, protein captured by MAb 6A8 and detected by MAb 4C1",[3]; 0.75 ng protein per well,1740 OD
same,"OD, protein captured by MAb 6A8 and detected by MAb 4C1",[3]; 1.5 ng protein per well,2043 OD
same,"OD, protein captured by MAb 6A8 and detected by MAb 4C1",[3]; 2.5 ng protein per well,2291 OD
same,"OD, protein captured by MAb 6A8 and detected by MAb 4C1",[3]; 3.1 ng protein per well,2219 OD
same,"OD, protein captured by MAb 6A8 and detected by MAb 4C1",[3]; 6.25 ng protein per well,2197 OD
same,"OD, protein captured by MAb 6A8 and detected by MAb 4C1",[3]; 25 ng protein per well,2142 OD
same,"OD, protein captured by MAb 6A8 and detected by MAb 4C1",[3]; 50 ng protein per well,2183 OD
same,"OD, bound IgE","[2]; Assay Number 1, serum human 1916",51 OD multiplied by 1000
same,"OD, bound IgE","[2]; Assay Number 1, serum human3848",3123 OD multiplied by 1000
same,"OD, bound IgE","[2]; Assay Number 1, serum human 3958",3368 OD multiplied by 1000
same,"OD, bound IgE","[2]; Assay Number 1, serum human 3960",2279 OD multiplied by 1000
same,"OD, bound IgE","[2]; Assay Number 1, serum human 3961",1479 OD multiplied by 1000
same,"OD, bound IgE","[2]; Assay Number 1, serum human 3987",3741 OD multiplied by 1000
same,"OD, bound IgE","[2]; Assay Number 1, serum human 4289",777 OD multiplied by 1000
same,"OD, bound IgE","[2]; Assay Number 1, serum human 4467",1302 OD multiplied by 1000
same,"OD, bound IgE","[2]; Assay Number 1, serum human 5207",3051 OD multiplied by 1000
same,"OD, bound IgE","[2]; Assay Number 1, serum human pool",1732 OD multiplied by 1000
same,"OD, bound IgE","[2]; Assay Number 2, serum Heska human B",0 OD multiplied by 1000
same,"OD, bound IgE","[2]; Assay Number 2, serum Heska human C",0 OD multiplied by 1000
same,"OD, bound IgE","[2]; Assay Number 2, serum Heska human D",0 OD multiplied by 1000
same,"OD, bound IgE","[2]; Assay Number 2, serum Heska human E",19 OD multiplied by 1000
same,"OD, bound IgE","[2]; Assay Number 2, serum Heska human F",0 OD multiplied by 1000
same,"OD, bound IgE","[2]; Assay Number 2, serum Heska human G",1 OD multiplied by 1000
same,"OD, bound IgE","[2]; Assay Number 2, serum Heska human H",0 OD multiplied by 1000
same,"OD, bound IgE","[2]; Assay Number 2, serum Heska human I",1 OD multiplied by 1000
same,"OD, bound IgE","[2]; Assay Number 2, serum Heska human J",1 OD multiplied by 1000
same,"OD, bound IgE","[2]; Assay Number 2, serum Heska human K",0 OD multiplied by 1000
same,"OD, bound IgE","[2]; Assay Number 2, serum Heska human L",0 OD multiplied by 1000
same,"OD, bound IgE","[2]; Assay Number 2, serum Heska human M",51 OD multiplied by 1000
same,"OD, bound IgE","[2]; Assay Number 2, serum Heska human N",885 OD multiplied by 1000
same,"OD, bound IgE","[2]; Assay Number 2, serum Heska human O",0 OD multiplied by 1000
same,"OD, bound IgE","[2]; Assay Number 2, serum Heska human P",0 OD multiplied by 1000
same,"OD, bound IgE","[2]; Assay Number 2, serum Heska human Q",0 OD multiplied by 1000
same,"OD, bound IgE","[2]; Assay Number 2, serum Heska human R",1 OD multiplied by 1000
same,"OD, bound IgE","[2]; Assay Number 2, serum human 1916",62 OD multiplied by 1000
same,"OD, bound IgE","[2]; Assay Number 2, serum human 3848",2362 OD multiplied by 1000
same,"OD, bound IgE","[2]; Assay Number 2, serum human 3958",2235 OD multiplied by 1000
same,"OD, bound IgE","[2]; Assay Number 2, serum human 3960",1308 OD multiplied by 1000
same,"OD, bound IgE","[2]; Assay Number 2, serum human 3961",784 OD multiplied by 1000
same,"OD, bound IgE","[2]; Assay Number 2, serum human 3987",2664 OD multiplied by 1000
same,"OD, bound IgE","[2]; Assay Number 2, serum human 4289",589 OD multiplied by 1000
same,"OD, bound IgE","[2]; Assay Number 2, serum human 4467",1051 OD multiplied by 1000
same,"OD, bound IgE","[2]; Assay Number 2, serum human 5207",2746 OD multiplied by 1000
same,"OD, bound IgE","[2]; Assay Number 2, serum human pool",2599 OD multiplied by 1000
same,"OD, bound IgE","[4]; Assay Number 1, serum dog pool",750 OD multiplied by 1000
same,"OD, bound IgE","[4]; Assay Number 1, serum dog-1",3 OD multiplied by 1000
same,"OD, bound IgE","[4]; Assay Number 1, serum dog-2",2245 OD multiplied by 1000
same,"OD, bound IgE","[4]; Assay Number 1, serum dog-3",2839 OD multiplied by 1000
same,"OD, bound IgE","[4]; Assay Number 2, dog sera pool A 146",449 OD multiplied by 1000
same,"OD, bound IgE","[4]; Assay Number 2, dog sera pool KS338",101 OD multiplied by 1000
